Target: endogenous actin of neonatal rat cardiomyocytes (rat (endogenous in neonatal rat cardiomyocytes)) (UniProt P68035)
Test: co-sedimentation; G-actin/F-actin fractionation of lysates of neonatal rat cardiomyocytes transduced with mCherry or mCherry-Tpm1.1 (G-Actin/F-actin In Vivo Assay Biochem Kit); ultracentrifugation 100,000 x g, 37 °C, 1 h; supernatant and pellet immunoblotted

How did the percent of Tmod1 in the F-actin fraction (cells expressing mCherry) turn out when “endogenous Tmod1 of neonatal rat cardiomyocytes (from UniProt P70567 1-359) (natural protein)” was run?
Its percent of Tmod1 in the F-actin fraction (cells expressing mCherry) is 42.7%.

And the percent of Tmod1 in the F-actin fraction (cells expressing mCherry-Tpm1.1)?
The percent of Tmod1 in the F-actin fraction (cells expressing mCherry-Tpm1.1) was 65.6%.

For “endogenous CAP2 of neonatal rat cardiomyocytes (from UniProt P52481 1-477) (natural protein)”, which percent of CAP2 in the F-actin fraction (cells expressing mCherry) is on record?
The percent of CAP2 in the F-actin fraction (cells expressing mCherry) was 28.6%.

What about the percent of CAP2 in the F-actin fraction (cells expressing mCherry-Tpm1.1) of the same substance?
The percent of CAP2 in the F-actin fraction (cells expressing mCherry-Tpm1.1) was 25%.
